Data as given in patent US20090215195A1.

Molecular target: Human complement component C5 (human) (UniProt P01031)
Assay: cell-based or functional assay

## Recombinant SET1 (SSL7), allele from Staphylococcus aureus clinical isolate GL1
  SET1 concentration at maximum survival of E. coli in human serum: 2.1 nM
  surviving E. coli cells in human serum, maximum level: 14%
